Experimental data as given in patent US20070225240A1, “Screening Assay and Treatment” (priority 2003, published 2007).
Read-outs that look alike come from different tables or passages of the source.

Key:
[1] = test system: T1, GST-ASPP2 (693-1128), non-phosphorylated
T1 sequence: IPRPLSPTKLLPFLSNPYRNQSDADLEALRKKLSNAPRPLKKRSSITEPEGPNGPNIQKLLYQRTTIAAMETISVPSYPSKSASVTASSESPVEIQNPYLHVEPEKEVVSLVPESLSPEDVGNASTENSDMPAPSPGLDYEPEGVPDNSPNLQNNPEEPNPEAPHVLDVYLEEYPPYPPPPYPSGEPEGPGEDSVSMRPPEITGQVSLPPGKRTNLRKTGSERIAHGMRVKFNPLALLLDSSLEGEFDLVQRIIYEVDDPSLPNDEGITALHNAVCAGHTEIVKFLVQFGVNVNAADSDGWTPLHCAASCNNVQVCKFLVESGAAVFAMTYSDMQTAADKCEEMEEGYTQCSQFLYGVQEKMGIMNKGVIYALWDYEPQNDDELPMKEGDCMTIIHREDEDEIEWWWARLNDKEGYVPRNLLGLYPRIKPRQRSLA

[2] = target: full length ASPP2, V5-tagged (transfected) (Homo sapiens (Human)) (UniProt Q13625); experiment: cell-based or functional assay
[3] = target: full length ASPP2, V5-tagged (transfected) (Homo sapiens (Human)) (UniProt Q13625); experiment: cell-based or functional assay; remark: listed apart in the source
[4] = target: T2, full length ASPP1, V5-tagged (transfected) (Homo sapiens (Human)) (UniProt Q96KQ4); experiment: cell-based or functional assay
T2 sequence: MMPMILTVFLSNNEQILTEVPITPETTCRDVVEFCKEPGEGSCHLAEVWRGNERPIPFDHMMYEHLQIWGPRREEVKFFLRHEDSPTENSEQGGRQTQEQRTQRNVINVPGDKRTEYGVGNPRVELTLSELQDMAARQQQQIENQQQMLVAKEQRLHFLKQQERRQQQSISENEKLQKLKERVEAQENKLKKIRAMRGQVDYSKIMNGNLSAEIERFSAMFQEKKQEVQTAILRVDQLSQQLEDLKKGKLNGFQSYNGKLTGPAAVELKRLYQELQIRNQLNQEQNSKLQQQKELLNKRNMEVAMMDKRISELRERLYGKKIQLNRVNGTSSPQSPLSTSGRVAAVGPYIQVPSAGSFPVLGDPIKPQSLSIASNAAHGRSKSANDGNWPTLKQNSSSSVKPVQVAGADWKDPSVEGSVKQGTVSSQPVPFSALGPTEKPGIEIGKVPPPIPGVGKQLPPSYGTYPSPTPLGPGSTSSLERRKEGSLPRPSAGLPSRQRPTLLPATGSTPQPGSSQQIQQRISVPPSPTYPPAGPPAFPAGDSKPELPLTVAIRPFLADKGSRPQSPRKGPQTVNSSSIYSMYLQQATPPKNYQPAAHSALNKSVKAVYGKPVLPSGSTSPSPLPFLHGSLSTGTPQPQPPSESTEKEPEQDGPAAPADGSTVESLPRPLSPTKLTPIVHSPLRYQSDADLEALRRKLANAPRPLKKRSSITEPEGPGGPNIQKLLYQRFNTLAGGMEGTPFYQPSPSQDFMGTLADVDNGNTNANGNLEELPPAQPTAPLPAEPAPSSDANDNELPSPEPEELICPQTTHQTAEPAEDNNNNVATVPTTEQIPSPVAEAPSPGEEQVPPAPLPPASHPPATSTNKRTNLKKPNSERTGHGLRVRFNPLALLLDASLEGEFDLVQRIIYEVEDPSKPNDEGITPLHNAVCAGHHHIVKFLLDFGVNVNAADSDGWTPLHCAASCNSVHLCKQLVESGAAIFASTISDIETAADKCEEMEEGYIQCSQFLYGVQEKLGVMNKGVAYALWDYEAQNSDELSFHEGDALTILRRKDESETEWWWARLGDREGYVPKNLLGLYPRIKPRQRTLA

[5] = target: purified recombinant Ras loaded with GTP; experiment: in vitro immunoprecipitation of purified proteins with V5 antibody, intensity of the ras bands (FIG. 14C-D)
[6] = target: purified recombinant Ras loaded with GTP; experiment: in vitro immunoprecipitation with V5 antibody, intensity of the Ras bands (FIG. 23B)
Ras = experiment: In vitro immunoprecipitation of GDP/GTP-loaded Ras with ASPP1 fragment; type: binding; details: purified recombinant proteins, V5 immunoprecipitation, band intensity
Text: FIG. 14 illustrates that purified N-term ASPP1 binds directly in a preferential manner to Ras.GTP. A. Purified ras was loaded with tritium labelled -GDP, -GTP or not loaded as a control. The cpm counts of the tritium are shown. The differences in cpm is due to the fact that GDP and GTP were not tritium-labelled at the same level. B. Relative loading of ras-GDP and ras-GTP, showing the mol of nucleotide bound to ras. Both ras-GDP and ras-GTP were loaded with an equal amount of nucleotide. C. Loaded ras-GDP and ras-GTP with or without purified N-terminus ASPP1 was immunoprecipitated with a V5 antibody against the ASPP1 fragment. The immunoprecipitations were western blotted against ras to see whether there was direct and preferential binding of ras-GDP and ras-GTP to the amino-terminus of ASPP1. D. The intensity of the ras-GDP and ras-GTP bands pulled down by N-term ASPP1 were measured and shown as a graph. N-terminus ASPP1 binds ras-GTP four fold more strongly than it does to ras-GDP;
FIG. 23. Amino-terminus ASPP1 and ASPP2 preferentially bind activated Ras in vitro and in vivo. (A) Sequence homology between the amino-termini of ASPP1 and ASPP2 and the Ras-association domains (RAD) of RGL2 and AF-6. (B) The Ras protein loaded with either tritium-labelled GDP or GTP, was added to V5-tagged recombinant ASPP1 fragment (1-308) and immunoprecipitated with V5 antibody. As a negative control Ras-GDP and Ras-GTP were immunoprecipitated with V5 antibody in the absence of the ASPP1 fragment. The ASPP1 fragment preferentially bound Ras-GTP to Ras-GDP. The intensity of the bands representing immunoprecipitated Ras was quantified and the values shown as a bar graph in the right panel. […] The ASPP proteins were detected with mAbASPP1.54.1 that is known to cross-react with both ASPP1 and ASPP2. […]
2.5 μg of recombinant protein purified from Escherichia coli was incubated in a total volume of 320 μl assay buffer containing 2 μCi [3H] […] An aliquot of each sample had its tritium content measured to check the equal loading of GDP and GTP. […]

PKA
in vitro phosphorylation (P32 incorporation) [1]: MAPK1, PKA, p38SAPK and p90rsk were all found to be able to phosphorylate ASPP2

oncogenic H-RasV12, haemagglutinin-tagged (from UniProt P01112 1-186)
transactivation function of p53 (bax-luciferase reporter, Saos2 cells) [2]: 3 fold | transactivation function of p53 (bax-luciferase reporter, Saos2 cells) [3]: 2.5 fold | transactivation function of p53 (bax-luciferase reporter, Saos2 cells) [4]: 2.5 fold

oncogenic K-RasV12, haemagglutinin-tagged (from UniProt P79800 1-185)
transactivation function of p53 (bax-luciferase reporter, Saos2 cells) [3]: 2.5 fold | transactivation function of p53 (bax-luciferase reporter, Saos2 cells) [4]: 2.5 fold

p38SAPK
in vitro phosphorylation (P32 incorporation) [1]: MAPK1, PKA, p38SAPK and p90rsk were all found to be able to phosphorylate ASPP2

p90rsk
in vitro phosphorylation (P32 incorporation) [1]: MAPK1, PKA, p38SAPK and p90rsk were all found to be able to phosphorylate ASPP2

recombinant MAPK1
in vitro phosphorylation (P32 incorporation) [1]: MAPK1, PKA, p38SAPK and p90rsk were all found to be able to phosphorylate ASPP2 | in vitro phosphorylation assay with 32P-labelled ATP [1]: When compared to p38 SAPK, MAPK1 was clearly able to phosphorylate the ASPP2 fragment in vitro

B1: V5-tagged recombinant ASPP1 fragment (1-308) (protein, not shown: small tags and cut ends)
chain: MMPMILTVFLSNNEQILTEVPITPETTCRDVVEFCKEPGEGSCHLAEVWRGNERPIPFDHMMYEHLQIWGPRREEVKFFLRHEDSPTENSEQGGRQTQEQRTQRNVINVPGDKRTEYGVGNPRVELTLSELQDMAARQQQQIENQQQMLVAKEQRLHFLKQQERRQQQSISENEKLQKLKERVEAQENKLKKIRAMRGQVDYSKIMNGNLSAEIERFSAMFQEKKQEVQTAILRVDQLSQQLEDLKKGKLNGFQSYNGKLTGPAAVELKRLYQELQIRNQLNQEQNSKLQQQKELLNKRNMEVAMMDK
fold binding to ras-GTP over ras-GDP [5]: 4 fold | fold affinity for Ras-GTP over Ras-GDP [6]: 4 fold

B2: ASPP1 fragment (1-308): V5-tagged recombinant ASPP1 fragment (1-308) containing the Ras-association domain (protein)
chain: B1 chain
modifications: left off: small tags and cut ends
notes: V5-tagged recombinant ASPP1 fragment (1-308) containing the Ras-association domain
binding of Ras-GTP relative to Ras-GDP (Ras): 4 fold | binding of Ras-GTP relative to Ras-GDP (Ras; listed as N-terminus ASPP1): four fold | binding of Ras-GTP relative to Ras-GDP (Ras; listed as N-terminus of ASPP1): four-fold
